Measured values: the supplement of paper PMC12636428

Tested on: Saccharomyces cerevisiae
Test: transcriptional activation domain activity (GFP:mCherry ratio, weighted mean of sorted bins, harmonized to initial dataset scale) (arbitrary fluorescence ratio units); higher = stronger transcriptional activation
Conditions: beta-estradiol 1 µM; induction time 4 h
Outline: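 In diploid yeast carrying a GFP reporter, barcoded protein tiles fused to an estradiol-inducible synthetic transcription factor were integrated at the URA3 locus. Cultures diluted 1:5 into SC with 1 uM beta-estradiol were kept at 30 °C for 4 hours, then sorted by GFP:mCherry ratio into 8 bins before barcode sequencing. Tiles with under 50 reads were excluded. The activation activity reported here is the read-weighted mean of bin median fluorescence, averaged across barcodes and linearly rescaled to the initial dataset.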

## FCRALIHSQGEGPKSIYESSVISLTEAARAIINISRRSFTLHQTLTCRMWYFL
  transcriptional activation domain activity: 49900

## FCRCLTGTGKSRMGVPVVSRLLCHFQGLLLRVMAHLFEDRPGSVRWMTIELLK
  transcriptional activation domain activity: 28500

## FCVAAMIGEYGTTYYPTVTYWGELEVLGKIFWTLPLESFANSISGIIVDCYLI
  transcriptional activation domain activity: 63500

## FCYVVVLGRVLIRFGGYQVLTLWRSCMRRLPKLGDSIWSRVFLRCVSCMSLFL
  transcriptional activation domain activity: 62000

## FDAALQHCRHGIMILNNSSRPEWMCQYLVPIFRRLSITPFFFGGVRPTRLPQL
  transcriptional activation domain activity: 68800

## FDETIIQLRKTVLSCSTCCSIALKWFAEHEYALVGLLLRCLHMKVRSQIRAFL
  transcriptional activation domain activity: 44000

## FDHPLIPNRRKTYMRFEGCNPDMGCTIILRGADIITLRRLKKVMRFVTFMVRN
  transcriptional activation domain activity: 70100

## FDIITASLENSYQTTLTEKGSQVMEKNMDQLDSVHNLNDDDLQQLLEDLGNID
  transcriptional activation domain activity: 111000

## FDLDDQYLANVVAEDRDASVLVQMSIIVQEGEHSHKSEQEPHISLLVLRRKRL
  transcriptional activation domain activity: 40200

## FDNSGFQRLESLCACLAAIKSWMDIFLKFPPLEYAHLSFTFWAQLMKCIVVLY
  transcriptional activation domain activity: 61900

## FDQDIPQDSSLNTSYISNLPYFGVTPSENFDETWFFDQAIGLGWLDSAQFTLG
  transcriptional activation domain activity: 142000

## FDQYLFESISGLILRVQFIGGALPDSISIFEPTLFPPFTEILQGDIDQYIPYV
  transcriptional activation domain activity: 51300

## FDRLIPEWAHAWKPVEGIWMLWWIKHQIFFALGVLQLLNQYWFFLILRILVRT
  transcriptional activation domain activity: 56300

## FDTLLSFLLFSLSLIFFLSFLPLFCQRYFFSSFLNLVFLAFWLCCYCCCCSRG
  transcriptional activation domain activity: 31700

## FDTRGAIYCSRPRMVMMCELMGWDAAFVLMPYTPRWRRHRRLFHQHFNEAVAN
  transcriptional activation domain activity: 80200

## FDYDMFFRDSSKEGNNLFGEFLEDDDDDKKAANMSDDESSLIKNQLINEEPEL
  transcriptional activation domain activity: 41400

## FDYMICPVHDLGIPAPLSVFLSTVLNRAVTTIPYAPYQTHLFFLSCFVSLVAP
  transcriptional activation domain activity: 40500

## FEAKHADLIGSQKALYFQSTENIKNLLSMFTSYFSPIVDLLGHLHRVLTQVYH
  transcriptional activation domain activity: 46600

## FEFQHTRLYMAFRELEGKLLPCLIEANGLDLVIATLLSVVEKVTEVSNIRLTS
  transcriptional activation domain activity: 35600

## FEHKELKLCPYFNFTFCVYFRLSNPFAKQYHITPTCFCGQNVTINRTYREGKN
  transcriptional activation domain activity: 62800

## FELHIPYHFVVVNTGKKLFQIWGLGKIDFARDFPFLQGARGSLTRTIIVILRN
  transcriptional activation domain activity: 52300

## FFAFTFILMMACLVSGIGWCLLYFTCMYLLLIYYILSLFFYSPLASCNSFFFF
  transcriptional activation domain activity: 27200

## FFCCSSLKRDMRFRSYLWAVWVGVVTGVKTSINLVSYRGLPPNNIIIKNLFFA
  transcriptional activation domain activity: 67700

## FFCFVFLAHYTWLIKHGFQTHLLELGSFFSDLSLIICFFLLIMHLFCVTPFFR
  transcriptional activation domain activity: 68400

## FFCSLFVSPVTLFFIFYSYCKRSFAISLLLMITIYWSFLLGLTASILVYRIWL
  transcriptional activation domain activity: 57500

## FFDDIPDTLESIRKHIDLFGNDFYLAHIYRTLRWWTKPTHVAVLGDLLGSQWI
  transcriptional activation domain activity: 70300

## FFELLGLFVFFVLFLVGAAIASTFWGDLFWCHSFWQCRVLTVLVAFAWMCWVL
  transcriptional activation domain activity: 46900

## FFEVGGVPRFQETVIAGGDNSVGRALSSPTVIYSGKHDGIALTIIRLLRPIWL
  transcriptional activation domain activity: 53400

## FFFFFFFFFFFFFLFLLLSLFFPYLICHRLHLKTQLPHICFIFRLLAASCLST
  transcriptional activation domain activity: 46400

## FFFFHFFFFWSSLRHIFQVLILGALGFLFFHFSFFIFHFSFFIFHFHFLFFFS
  transcriptional activation domain activity: 50400

## FFFFLLFCFSFLYRLLSLYLFLFPFDFFFFSPWFCSNSRFYLRFVSFFPFFFF
  transcriptional activation domain activity: 50200

## FFFFLLFFPLPFFPSSFPFFFLIHLLISSSLVFPFSSSSSSLTQVFWCLCFFF
  transcriptional activation domain activity: 57400

## FFFFLLLLLLFFFLLRFLLLVYYYPNHPTHTYQPISFQFQPTHQIHHNALQHH
  transcriptional activation domain activity: 32200

## FFFFPFLSLLFFFFPFLLSLLSSSLLLAAFSCFCFLPSLTPLPLSSSSSSPLF
  transcriptional activation domain activity: 34900

## FFFFVIFSLFHLPFACIFRFFPNDLFACYLYSPFFFPIDFCPFALFPPFFLSF
  transcriptional activation domain activity: 59500

## FFFSFFFFLFLFLFHLRFFPLTFVPFFIPCLLLLSSSLLLCCVVWYLFMRLFS
  transcriptional activation domain activity: 46700

## FFFSGTALRGIYVGCLVFLVLLWFLHMFFILFTFPFFFVLVWVLLFFRELHFA
  transcriptional activation domain activity: 50600

## FFFSSIFFIVFGGPGQLFFFFSILLFLYPISTFMRCIIHRVFLLFFAFFFFLF
  transcriptional activation domain activity: 29400

## FFFVCYILQTLGMIAYMIMIVYDYYQNYLWFRGVAVVQSSTFIGQWYVFFIWF
  transcriptional activation domain activity: 57700

## FFFVNGMWYNMAYIFGSWKLGWWELGAKIFVFQEVYETLLYLLTPFILPISFY
  transcriptional activation domain activity: 48600

## FFGSLMGGALARPQDHWPELFAHPFWTTHPYFLPSASSDCVLLLIIFISLFFL
  transcriptional activation domain activity: 77800

## FFGVCLGFYGFSFRSNFEPGAIIHDYILFMTPSFASLCARFHIQWLLFILFIH
  transcriptional activation domain activity: 46800

## FFHVTIRCASQGCGIAFGILGFQNTNVFLAYLILGAEGYFTLVLCVFRFLISW
  transcriptional activation domain activity: 73400

## FFHVTIRVASQACGIGFGILGFRNTNLFLAFLILGAEGYFSLVLCAFRFLISW
  transcriptional activation domain activity: 48000

## FFHVTIRVASQGCGIGFAILGFGNLGLFLAFLILGAEGYFSLVLCTFRFVISW
  transcriptional activation domain activity: 78100

## FFHVTIRVASQSCGIAFGILGFSNFPVFLAYLILGAEGYFSLVLCAFRFLISW
  transcriptional activation domain activity: 75000

## FFHVTIRVASQSCGIAFGILGFSNFRVFLAYLILGAEGYFTLVLCAFRFLISW
  transcriptional activation domain activity: 61100

## FFHVTVRVASQGCGLAFGIHGFENTDVFLAYLILGAEGYFTLVLCTFRFLVSW
  transcriptional activation domain activity: 66200

## FFLALSFKDPFRWLYQFNMDPSLCTEKYLGSNLCVNQNLITLGFMLLLDLVLF
  transcriptional activation domain activity: 67300

## FFLALSFRDALAATSMMNLNNCMADPLLGKWVCQLLPSLTSILMFTVELVLFF
  transcriptional activation domain activity: 63800

## FFLCTFTFFSFCLHLFLFLCVYRLYPTFCSVYPFFPFPILLLFIWLFMWFFIS
  transcriptional activation domain activity: 71800

## FFLFLFFPFSFSFLFFSFFHFLPMLAHCYNGVTISVSLWFPLILASLFRPFLL
  transcriptional activation domain activity: 64300

## FFLKVYLLNPLHMTRFADLLYQGAILNHVFQPYESHLQYLLQWMCDYNLYGCA
  transcriptional activation domain activity: 70700

## FFLKVYLLNPLHMTRFADLLYQGAILNRVFQPYESHLQYLLQWMCDYNLYGCA
  transcriptional activation domain activity: 72900

## FFLKVYLLNPMHMTRFADLLYQGAILNRVFQPYESHLQYLLQWMCDYNLYGCA
  transcriptional activation domain activity: 46700

## FFLLFHIFHCLWGPRATILLFFSILLFFYPISTFMRCIIHRVFLLFFAFFFFL
  transcriptional activation domain activity: 22200

## FFLLIALLPAWVVGFCIVFSIAMSCAAYDTLQVSLVATVSNDLFRNKISIWWV
  transcriptional activation domain activity: 42000

## FFLLRNGFIFEDMARYRFYTCSQLWLWLIFLAVRSEIGLQRVYVFFVFMLFQV
  transcriptional activation domain activity: 49800

## FFLRIAVEVLHIRIIWAIILVNVLFGFSYFMCAVLQCVPIPYIWKKYAANPPP
  transcriptional activation domain activity: 43200

## FFLVLIYCPFPSFGPDLSLPFPSPFLSLHLLITILLSPLSPFYLFLFYFTSPS
  transcriptional activation domain activity: 84300

## FFNILILQWRRIRCCKVVSTSLCLENTLGVAQLFVQFVLFTLIFILYMIYFPP
  transcriptional activation domain activity: 48300

## FFPLGFLMRFLLFDLSLSCFLSFPLFLFSLPTTFLLYYYFPPHTIIMSCGSPI
  transcriptional activation domain activity: 43500

## FFPSFSFSFSSFSFLLFISSSYSFFLFFPSSYSFFLFFFFYLIPYLLDFFPFL
  transcriptional activation domain activity: 50500

## FFRRALNFLFDIALVPMIVCSSYAIFEVPSNVFLKRLRPSLWLSLLMLLWGIM
  transcriptional activation domain activity: 69000

## FFRRLLLEIGWAHPLLVLCSATLLEPAHSRDHYVSKVFSHLSPEHAHVVGEIA
  transcriptional activation domain activity: 47500

## FFSFPSFLLLPPPLSSLPFPSPFLSLLLSLLAFPAAFFPLFSLSSLLNIFPTT
  transcriptional activation domain activity: 58500

## FFSSFLFFSFLFFSVVLSFLLFFSLLFSSPLFFPFLPFPSLSFPSLPSSPLLF
  transcriptional activation domain activity: 35200

## FFSSLFIYSFFVFSFSLSLSLCLLPSFFLSCFLSFFAIYYYLVGFLLLLLLLF
  transcriptional activation domain activity: 49100

## FFTPPSTTYLRFFLSFYPLSPFIFFFIFLSFSLPLSSFLSFSISFFFTFPFPF
  transcriptional activation domain activity: 36100

## FGAIFVELYFIMSSIWFSKIYYMFGFLFLCYGLMILTCATVTILMVYFLLCAE
  transcriptional activation domain activity: 60500

## FGASLPVFWKVIFHHCQLYFLVIVSTKAILVFTIYALEFPYSVMFIICHLVLV
  transcriptional activation domain activity: 37700

## FGCLGFYPYLYCTGGMVLSHFAPHQNPELYPSDLSIISSLLISILFFCGWTLT
  transcriptional activation domain activity: 67900

## FGESCAGVLPVTMYDNRLNRHSEHHGKNVYEKMVSGRYLGELVRWILVELLDR
  transcriptional activation domain activity: 54500

## FGFFSFSSFFFFLVLLYLFSFFFFLDFLSFSFLFPDIHSRIVINHNLVGNFFF
  transcriptional activation domain activity: 44600
